Positions count from the first letter of the chain named.
B1: 22F11H5-hz1 (antibody, human IgG1, kappa, V domains shown)
VH: QVQLVQSGAEVKQPGASVKVSCKASGYTFTTYWMHWVRQAPGQGLEWMGMIDPSDSYTTYAQKFQGRVTLTVDTSTSTAYMELSSLRSEDTAVYYCARGSGPGLFAYWGQGTLVTVSS
VL: DIQETQSPSSLSASVGDRVTITCRASQDIRNYLNWYQQKPGKAPKLLIYHTSRLQSGVPSRFSGSGSGTDYTLTISSLQPEDFATYYCQQGNMPPYTFGQGTKVEIKR
notes: Humanized IgG1 kappa
B2: 27H8H3-hz1 (antibody, human IgG1, kappa, V domains shown)
VH: B1 VH with Q13K, T59S, A97T
VL: B1 VL with D28G, R30S, Q55H, G66V, Y71F, Y87F, M93T, P94L
notes: Humanized IgG1 kappa

Key:
[1] = target: T1, tissue factor (TF) on the surface of TF-positive tumor cells (human, UniProt P13726 33-295); test: cell-based or functional assay
[2] = target: T1, tissue factor (TF) on the surface of …; test: cell-based or functional assay; remark: listed apart in the source
[3] = target: T1, tissue factor (TF) on the surface of …; test: flow cytometry on NCI-H358 cells
Protocol: A TF low/medium-expressing cell line NCI-H358 (source: Nanjing Cobioer, CBP60136) and a TF high-expressing cell line KYSE520 (source: Nanjing Cobioer, CBP60658) were digested with trypsin, collected by centrifugation, and washed three times with pre-cooled PBS. The cells were resuspended in 1% BSA and seeded into a 96-well sharp-bottom plate at 3×10⁵ cells/well. Each of the antibodies obtained by the gradient dilution was added, and the plate was incubated at 4° C. for 1 h. The cells were washed three times with pre-cooled PBS. 1 μL of anti-human fluorescent secondary antibody (APC anti-human IgG Fc Antibody, Biolegend, 410712) was added to each well, and the plate was incubated at 4° C. for 0.5 h. The cells were washed three times with pre-cooled PBS, resuspended, and detected by a flow cytometer (Sony, LE-SA3800GA). The data were imported into GraphPad software for curve fitting.

human TF-His [4] = target: T2, human TF-His (human, UniProt P13726 33-251); test: ELISA, plate coated with h.TF-His
T2 construct: range 33-251; Recombinant extracellular segment expressed in HEK293-EBNA cells and purified on a nickel column; also called h.TF-His; h; TF-his; not shown: His tag from vector pTT5-His
Protocol: (§1) The ELISA plate was coated overnight with TF antigen (h.TF-His or c.TF-His antigen) in 50 mM carbonate coating buffer (CBS coating solution) at a coating concentration of 1 μg/mL in a volume of 100 μL at 4° C. The next day, the coating solution was removed, each well was washed once with 300 μL of PBS, and 100 μL of 2% BSA (Biotopped, A6020) in PBS was added to each well for blocking at 37° C. for 2 h. The test sample was subjected to a gradient dilution with 2% BSA in PBS to establish 11 concentration points. 100 μL of each of the samples obtained by the gradient dilution was added to the plate, and the plate was incubated at 37° C. for 2 h. The supernatant was removed, and each well was washed three times with 300 μL of PBST. 100 μL of HRP-conjugated secondary antibody in 2% BSA was added to each well, and the plate was incubated at 37° C. for 1 h. […] At the end of the incubation, the secondary antibody was removed, each well was washed five times with 300 μL of PBST, and 100 μL of TMB substrate (Huzhou InnoReagents Co., Ltd., TMB-S-004) was added to each well for color development for 5-20 min. 50 μL of 2 N HCl was added to each well to stop the reaction, and OD450 nm values were read using a microplate reader (manufacturer: MD, model: SpectraMax) and imported into GraphPad software for fitting and plotting to determine the binding of the samples to TF antigenic proteins.
The assay was performed as described in the general methods. Briefly, an ELISA plate coated with a human TF-his protein or a cynomolgus monkey TF-his protein was blocked with 2% BSA at 37° C. for 2 h, and each of the antibodies obtained by the gradient dilution (starting at 10 μg/mL, 3-fold graded dilution, 11 concentration points) was added. The plate was incubated at 37° C. for 2 h.

[5] = target: T1, tissue factor (TF) on the surface of …; test: cell ELISA on fixed NCI-H358 cells
Protocol: TF antigen-positive cells (MDA-MB-231 or NCI-H358 cells) were seeded into a 96-well plate at 5×10⁴ cells/well one day prior to the experiment. On the day of the experiment, the culture supernatant was removed, each well was washed once with 300 μL of PBS, and 100 μL of 4% paraformaldehyde was added to each well for immobilization at room temperature for 20 min. The paraformaldehyde was removed, and each well was washed twice with 300 μL of PBS, and 100 μL of 2% BSA in PBS was added to each well for blocking at 37° C. for 2 h. After the blocking was completed, 30 μL of the test sample (hybridoma supernatant or purified antibody) was added to each well and the plate was incubated at 37° C. for 2 h. The liquid was removed, and each well was washed three times with 300 μL of PBST. 100 μL of HRP-conjugated secondary antibody in 2% BSA was added to each well, and the plate was incubated at 37° C. for 1 h. […] The secondary antibody was removed, each well was washed five times with 300 μL of PBST, and 100 μL of TMB substrate (Huzhou InnoReagents Co., Ltd., TMB-S-004) was added to each well for color development for 5-20 min. 50 μL of 2 N HCl was added to each well to stop the reaction, and OD450 nm values were read using a microplate reader (manufacturer: MD, model: SpectraMax) to determine the binding of the samples to TF-positive cells.
The assay was performed as described in the general methods. Briefly, TF antigen-positive NCI-H358 cells were digested with trypsin, collected, seeded into a 96-well plate at 5×10⁴ cells/well and incubated overnight, and then immobilized with 4% paraformaldehyde. After the paraformaldehyde was removed and the cells were washed with PBS, the plate was blocked with 2% BSA at 37° C. for 2 h. Each of the antibodies obtained by the gradient dilution (starting at 10 μg/mL, 3-fold graded dilution, 11 concentration points) was added. The plate was incubated at 37° C. for 2 h.

human TF-His [6] = target: T2, human TF-His; test: antigenic protein-based ELISA, before conjugation (TF antigen species not stated)
Protocol: as §1

human TF-His [7] = target: T2, human TF-His; test: antigenic protein-based ELISA on TF antigen (coating antigen not named, taken as human TF-His), antibody kept 14 days in human serum at 37 C
Protocol: as §1, with “proteins. […]” for “proteins.”

human TF-His [8] = target: T2, human TF-His; test: antigenic protein-based ELISA on TF antigen (coating antigen not named, taken as human TF-His), antibody diluted in human serum, 0 days at 37 C
Protocol: as §1, with “proteins. […]” for “proteins.”

Row | Binder | Endocytosis rate (%) on NCI-H358 cells, 2 h [1] [%] | Endocytosis rate (%) on NCI-H358 cells, 4 h [1] [%] | IC50 (ng/mL), inhibition of FVIIa-induced IL-8 release by MDA-MB-231 cells [2] [ng/mL] | Maximum inhibition rate (%), FVIIa-induced IL-8 release by MDA-MB-231 cells [2] [%] | EC50 [3] [µg/mL] | EC50 (human TF-His [4]) [µg/mL] | EC50 [5] [µg/mL] | EC50 (human TF-His [6]) [µg/mL] | EC50 (read off the curve) (human TF-His [7]) [µg/mL] | EC50 (read off the curve) (human TF-His [8]) [µg/mL]
1 | B1 | 34.3 | 56.1 | 180 | 94.3 | 0.0671 | 0.00858 | 0.012 | 0.00515 | ~0.03 | ~0.03
2 | B2 | 49.2 | 73.4 | 463 | 100 | 0.0991 | 0.00815 | 0.0348 | 0.00313 | ~0.05 | ~0.05
